± gives the uncertainty stated by the source.

The series in a line: amyloid nucleation score (Sup35N fusion, yeast selection) (log enrichment); library NNK2; higher = more nucleation; inactive = no reads after selection. In outline:
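Using DiMSum, nucleation scores were taken as the log enrichment of output over input reads, centred on the mode score of non-aggregating sequences. The input and output reads came from Illumina sequencing of plasmid inserts, with sequences under 100 input reads excluded. The yeast were psi-negative, expressed Sup35N fused to peptides of 20 random codons, were induced with 100 μM copper sulfate for 24 hours, and were grown 7 days at 30°C on medium lacking adenine and uracil.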

Turning to TYVVKLLIGWDLDAIFTVLS, the amyloid nucleation score came to 0.499 ± 0.37. With QESWHNYESS the figure was -0.805 ± 0.64; with VWILSLAWLLPGYTCPFGPK, 4.801 ± 0.042; with DYIFGYSTILFVMLCIHNFY, -1.35 ± 0.78. For SDWII, the amyloid nucleation score was -0.063 ± 0.56.

In turn, KSVTDSL displayed an amyloid nucleation score of 0.878 ± 0.44.

In turn, WGAVMACE displayed an amyloid nucleation score of 0.756 ± 0.49. With LASHVVWTDKN the figure was 6.635 ± 0.041. Consider SCYLVVFPKIC, for which the amyloid nucleation score result was “inactive”. Take YMTEIANKRSPRACWIGERM: the amyloid nucleation score was -0.156 ± 0.79. Consider ARSMVMHYFWGSTLAPESKF, for which the amyloid nucleation score is -0.801 ± 0.45. For the substance CALGDATFNVWYMLS, the amyloid nucleation score is 4.14 ± 0.05. With KDGKALT, the amyloid nucleation score result is “inactive”. Regarding YFKCGGHAFCVSNYARLNDF, the amyloid nucleation score is -0.573 ± 0.42.

In the case of FDLAMGVSLVKRLRLVLCLS, the amyloid nucleation score was -1.12 ± 0.64.

As to FFGYAGCNRPVNLSYGGRFN, the amyloid nucleation score was -0.952 ± 0.32.

As for VDIVFSPSTNQWFLFLNCLV, the amyloid nucleation score turned out to be 4.24 ± 0.038. Consider MIFSEFGAEVIVGWFVVSVG, for which the amyloid nucleation score is -0.9 ± 0.76. On to KRDRIAFPMEIDDIIKAWM, for which the amyloid nucleation score was -0.929 ± 0.55.

For the substance LRLARKRVECFVLLADFNNR, the amyloid nucleation score is 0.306 ± 0.53. For the substance LGGLSDVFQNRPLMTYGAWS, the amyloid nucleation score was -0.303 ± 0.35. TDYVRHKRRNYCLL yielded an amyloid nucleation score of 1.12 ± 0.43. As for YVSWRTNGLMSTCDFLTRQT, the amyloid nucleation score was found to be 0.719 ± 0.23. In the case of CMSNAKCKGVDFAAGKLLSC, the amyloid nucleation score was -0.004 ± 0.49. The result for GMICKWAWVSTGGKGVKCRE reads 0.272 ± 0.43; that for MDGVHFVRYQM, 0.181 ± 0.45. FGKPGPRFLSSPGFSYP gave an amyloid nucleation score of 0.382 ± 0.51.

Turning to MYRYSWHDVFCVSKCSEVS, the amyloid nucleation score result is “inactive”. As to VHARYMIFWKWTILLHS, the amyloid nucleation score result was “inactive”. As to FMPSVFMYSLVVFRYVVYMS, the amyloid nucleation score was -1.07 ± 0.78. On to TNRNKRWRYLTLFV, for which the amyloid nucleation score came out at 0.545 ± 0.37.

Consider LCLELFKQSVQFGLC, for which the amyloid nucleation score came to 0.325 ± 0.35. AALPFHEVPTGLMITRAFWD: the amyloid nucleation score was 3.72 ± 0.13.

In the case of GMRGNSYAVSYRDIVVLAPC, the amyloid nucleation score is -0.007 ± 0.55. With STASLHGVMLGMRLKNPLGV, the amyloid nucleation score was -0.97 ± 0.63.

With NLPSWLVGRRSVWECYRLDT, the amyloid nucleation score amounted to 0.043 ± 1. The result for SFFLFWRFCIGAW reads -0.977 ± 0.63; that for GGTIYTLL, -1.01 ± 0.36. As for FYCLCTTDGICLEDLL, the amyloid nucleation score is -0.097 ± 1.1. As for CACDNHIVNRSESHCYGSLR, the amyloid nucleation score is -0.293 ± 0.39. SKRFRLTIDGIGVYRW gave an amyloid nucleation score of 0.649 ± 0.22. On to RVISGSMVETIDEDIVEGVN, for which the amyloid nucleation score is -0.332 ± 0.3. As for GLSRLTRYNNGNITTHSNWH, the amyloid nucleation score was -0.074 ± 1.1.

The substance TFFLITDTSVMEEM registered an amyloid nucleation score of 0.072 ± 0.79. VVIHLLPSES: the amyloid nucleation score entry is “inactive”. Substance MQTCYSDQMDFVYEAYYCTW came in with an amyloid nucleation score of 1.7 ± 0.1.

With NYHKWNVDSDFVYKGYGGHC, the amyloid nucleation score is -0.573 ± 0.48. The substance FKLICTRSWLRLG yielded an amyloid nucleation score of 3.91 ± 0.056.

As to WNEIE, the amyloid nucleation score entry is “inactive”.

For DYMFIDLASSNTNLRSWSHS, the amyloid nucleation score is -0.408 ± 0.37.

As to EEWNRRANMGFLNYFETHGG, the amyloid nucleation score is -1.14 ± 1.

For the substance GGRRCGFITIRETNRTLLAL, the amyloid nucleation score is -0.28 ± 0.55. With WSTFSTFTGYSA, the amyloid nucleation score is -0.335 ± 0.5.

In turn, TAYSA came in with an amyloid nucleation score of 0.521 ± 0.41. The result for SLLYRD reads -0.817 ± 0.48; that for DRWLVFPSNRPVFVMDRFNG, -0.414 ± 0.64. IPMHPLCGVRRNTELRVVEW returned an amyloid nucleation score of 1.78 ± 0.25. As to LMMKEPDPSVC, the amyloid nucleation score was -0.101 ± 0.42. RSLSLLLVFLAMCAIMVPMR: the amyloid nucleation score amounted to 8.575 ± 0.04. The result for NVLRCINYYLYYTSGCASSS reads -0.169 ± 0.42; that for TGIDHYFWLFFSYLGTLWSK, “inactive”; that for GGRMHCARRTRMWVHLDAGM, 5.823 ± 0.049.

Regarding LNAYGGRCSL, the amyloid nucleation score worked out at 0.317 ± 0.5.

Consider LRKWILLLRDYDSLYFCLVA, for which the amyloid nucleation score is -0.996 ± 0.36. With TFSLAVVYRFDDAFTLRVGD, the amyloid nucleation score was found to be 6.135 ± 0.05. The substance AAWIAMCRILKQPTRCGHFL registered an amyloid nucleation score of 6.15 ± 0.073. With NLSFKSMYLVERWICHRKGR the figure was 1.14 ± 0.18.

Turning to NSIIGCYRGFC, the amyloid nucleation score was found to be 4.63 ± 0.092. IPNYLSYTWILYNYTFLGAC: the amyloid nucleation score is 0.719 ± 0.38. As to YSTRRLGHLMC, the amyloid nucleation score was -0.381 ± 0.79. As for PWHVYFDRNGWPYGSQRVQG, the amyloid nucleation score turned out to be 0.718 ± 0.57.

Turning to FSPLCYSYV, the amyloid nucleation score is -1.22 ± 1. Turning to NGITDV, the amyloid nucleation score was -0.414 ± 0.45.

The substance LGPAYYYHNYLNLRGLSSGM yielded an amyloid nucleation score of 0.504 ± 0.74. Consider CSCEVALIIK, for which the amyloid nucleation score entry was “inactive”. For the substance VSRMYKHLSYMVLIYSPWRE, the amyloid nucleation score is -0.315 ± 1. Consider MSFYPRWFSQGMLWCKHHHA, for which the amyloid nucleation score was found to be 0.516 ± 0.81. DYYYIPSSIVSTIFKEFSPL: the amyloid nucleation score is -1.97 ± 0.78. Substance CMWWIHDPGRDRLKELKVAR returned an amyloid nucleation score of 0.452 ± 0.36. With RAVHARYLL the figure was 1.86 ± 0.15; with FYSLTDPCICGCH, -0.341 ± 0.79; with NQLVWSLNNDLGMENVGGRV, 1.46 ± 0.44. On to MFKDNLLIVLFMLLMGLMRW, for which the amyloid nucleation score stood at 3.45 ± 0.069. For TCGYGLSWLSGSPSMIMWMW, the amyloid nucleation score was 0.009 ± 0.63. With TFNYHVTYFLGHFFSTYGRF the figure was 3.49 ± 0.064; with WGRWSHRWAFHYRACS, -0.879 ± 0.39; with YCCTDQGFSLGYRMLWCRDN, -1 ± 0.24.

The substance EFSIHAGLM came in with an amyloid nucleation score of 0.222 ± 0.46. On to MLNSVLAQAMRH, for which the amyloid nucleation score is 1.28 ± 0.53. As for RLASSIRWTTFSSDGRVRIL, the amyloid nucleation score was determined as 0.783 ± 0.57. With YEVREFSCHGINIKMEGIYC the figure was 1.48 ± 0.2; with VLYPMLNGGFMESLN, “inactive”; with ICVRERNRSYRMPFMMFVVR, -0.017 ± 1. With PLWPSNSD the figure was -0.331 ± 0.54. YLYGGVYKIKIMILPFDRAL displayed an amyloid nucleation score of 7.621 ± 0.044. The substance FSSIDPPNTRSAVSFRMTSP displayed an amyloid nucleation score of 0.065 ± 0.65. With IKVNCIEYYHSLRSRFDTSA, the amyloid nucleation score is 0.065 ± 1.1.

QTTMKVSFSFLMRGGNPQVM: the amyloid nucleation score amounted to 4.56 ± 0.11. With CEHRSLTFWHNGLLD, the amyloid nucleation score was -0.143 ± 0.65. For RPASKTMEDGCGLI, the amyloid nucleation score result was “inactive”. With IINSANM the figure was 0.736 ± 0.74. KHSEDSYCFMSGLSGVICCK: the amyloid nucleation score was 0.932 ± 0.19. Consider IVHILYECGAFRLPRGLY, for which the amyloid nucleation score was -0.538 ± 0.38. In the case of CEMLCQTIHSTLTWGIRRLS, the amyloid nucleation score worked out at 1.12 ± 0.46. For the substance PAWATTLLDTSTARLYNMLA, the amyloid nucleation score is 0.157 ± 0.18. On to NATEGFESFWM, for which the amyloid nucleation score entry is “inactive”. In the case of CCRGLIRMLDCCNYRRK, the amyloid nucleation score amounted to 3.75 ± 0.067.

For PYTSS, the amyloid nucleation score was -0.107 ± 0.41. As for LSKINVFWKSSTALQCLAPE, the amyloid nucleation score is -0.322 ± 0.55. The result for SLSTSFLYDFWVLNSADPRY reads -0.258 ± 0.76; that for YYLICST, 0.023 ± 0.47.

On to IPGSS, for which the amyloid nucleation score is -0.137 ± 0.54. The result for LMWADLLLKKLILFA reads -0.334 ± 0.64; that for KVLMLQHPIGYLLNILTMS, -0.017 ± 0.41; that for LAQQRPLRQRTMRHGSRFTA, 0.671 ± 0.43. With KSGGDDLESSWRCWASMGLM, the amyloid nucleation score is 0.182 ± 0.31. Consider SYVVGRFNLSRCHLSCGLVS, for which the amyloid nucleation score result is “inactive”.

For RNFGAVAFWVGWHWVVFSVG, the amyloid nucleation score is -0.588 ± 0.29. Consider FRRRQNRAHKYGALNYSMGS, for which the amyloid nucleation score entry was “inactive”. For the substance EIARLTNLDWTNISTFL, the amyloid nucleation score is -0.698 ± 1.1.

In turn, TFSCCACWGCFTRNV showed an amyloid nucleation score of 10.55 ± 0.047. With WFGLDVNCLRSWFGLWKFVE the figure was 0.089 ± 0.56; with QWTHERSEPWHCSDVRSFIE, 5.757 ± 0.044.

Substance LLWWMCQYEIFWDKMLYLES showed an amyloid nucleation score of 0.074 ± 1. As for YIIRRYWARPSYVNSFM, the amyloid nucleation score is -0.31 ± 0.74. Consider PYIWYPISECRGSSSFETYA, for which the amyloid nucleation score came to 0.29 ± 0.74.

As for EFILHVTQIAAIMDLRLVHM, the amyloid nucleation score came to 4.01 ± 0.11.

Consider GQDITDTFTLNCSRGFTCIR, for which the amyloid nucleation score worked out at 0.091 ± 0.34. The substance LGSVVSTPFCYSMFRTFKKH came in with an amyloid nucleation score of 0.109 ± 0.27. As for HPRTPGLVIEDKKNLFLVWR, the amyloid nucleation score worked out at 5.22 ± 0.057. SHRPWVWGQNISMKYRSVLK returned an amyloid nucleation score of 3.7 ± 0.057.

Regarding DRVNGYIIGRLTAYTSVSKD, the amyloid nucleation score was -0.317 ± 1.1. As to LWFQVTFDRICLQITTHTEL, the amyloid nucleation score came out at 4.86 ± 0.075. In turn, VSNREMYVNR came in with an amyloid nucleation score of 0.086 ± 0.74. Consider RWYSYYTQGDFRRFFLGSN, for which the amyloid nucleation score entry is “inactive”. Take VVVLFIEVLNCYLRGKVKCM: the amyloid nucleation score is -0.802 ± 0.39. Turning to VEHEFVQILT, the amyloid nucleation score was -0.733 ± 0.36.

With PANGS, the amyloid nucleation score was -0.249 ± 1.

For FSLFWWMSHITREWISCMCM, the amyloid nucleation score was -0.895 ± 1.1. The result for SAHFTIRKELFLKDTRRVV reads -0.47 ± 1.
